Patent publication US10500256B2, “Polymers for delivery of therapeutic proteins” (BOARD OF REGENTS, THE UNIVERSITY OF TEXAS SYSTEM, priority 2014, dated 2019)

How the values were obtained:
Caco-2 monolayer [1] = settings: cited from earlier work
Caco-2 monolayer [2] = test: Transport across Caco-2 monolayer (literature data); assay type: in vitro ADME, human; settings: over the 3 h average residence time, assuming constant permeability
Source text: Aside from limited delivery potential from the microparticle carriers, loss of bioavailability resulting from intestinal enzymatic degradation and low intestinal absorption should also be accounted for.

[3] = in vivo absorption of compounds with similar Caco-2 permeability; cited from earlier work
[4] = Loading and release of salmon calcitonin, urokinase and Rituxan from 1:2 P(IA-co-NVP) microparticles; assay type: physicochemical; settings: 3 mol % TEGDMA; for Loading Level: protein loading solution 200 μg/mL; for Percent Release, t = 24 h / Protein Released, t = 24 h: t=0-1 h pH 3, then pH 7.4
Source text: In an additional experiment, the loading and release of urokinase was also compared to that of sCT and rituximab using P(IA-co-NVP) microparticles synthesized with a monomer ratio of 1:2 IA to NVP. This experiment utilized urokinase as another high pI protein (pI=8.66) with a molecular weight (54.0 kDa) between that of salmon calcitonin (3.4 kDa) and rituximab (144 kDa), allowing us to see the effects across a range of sizes, rather than just two endpoints. Urokinase is used clinically as a thrombolytic agent for myocardial infarction, pulmonary embolism, and deep vein thrombosis.
This difference arises from two results. First, the hydrogels used in this experiment were crosslinked using 3 mol % TEGDMA in the monomer feed. […] Further, this experiment utilized loading solutions of proteins at only 200 μg/mL, rather than at 400 μg/mL as was used in the preceding experiment. […] With lower loading levels comes both lower overall delivery and lower percent release, as the lower loading level means less protein to be released even at 100% efficiency and, since concentration difference is the driving force for diffusion, less entropic gain due to diffusive release which therefore shifts the equilibrium toward coulombic binding rather than diffusive release.

Molecule: 1-deamino-8-D-arginine-vasopressin
- Apparent permeability in Caco-2 cultures (Caco-2 monolayer [1]; Caco-2): 1.3×10^−7

Molecule: CC(C)C[C@H](NC(=O)[C@H](CCCCN)NC(=O)CNC(=O)[C@H](CC(C)C)NC(=O)[C@@H](NC(=O)[C@@H]1CSSC[C@H](N)C(=O)N[C@@H](CO)C(=O)N[C@@H](CC(N)=O)C(=O)N[C@@H](CC(C)C)C(=O)N[C@@H](CO)C(=O)N[C@@H]([C@@H](C)O)C(=O)N1)C(C)C)C(=O)N[C@@H](CO)C(=O)N[C@@H](CCC(N)=O)C(=O)N[C@@H](CCC(=O)O)C(=O)N[C@@H](CC(C)C)C(=O)N[C@@H](Cc1c[nH]cn1)C(=O)N[C@@H](CCCCN)C(=O)N[C@@H](CC(C)C)C(=O)N[C@@H](CCC(N)=O)C(=O)N[C@H](C(=O)N[C@@H](Cc1ccc(O)cc1)C(=O)N1CCC[C@H]1C(=O)N[C@@H](CCCNC(=N)N)C(=O)N[C@H](C(=O)N[C@@H](CC(N)=O)C(=O)N[C@H](C(=O)NCC(=O)N[C@@H](CO)C(=O)NCC(=O)N[C@H](C(=O)N1CCC[C@H]1C(N)=O)[C@@H](C)O)[C@@H](C)O)[C@@H](C)O)[C@@H](C)O [Salmon Calcitonin]
- Fraction expected to be transported across the intestinal epithelium (Caco-2 monolayer [2]): 0.15%
- Fraction transported across a Caco-2 monolayer (Caco-2 monolayer [1]; in vitro, over 60 min, Youn et al. (2006)): 0.05%

Molecule: COc1cccc2c1C(=O)c1c(O)c3c(c(O)c1C2=O)C[C@@](O)(C(=O)CO)C[C@@H]3O[C@H]1C[C@H](N)[C@H](O)[C@H](C)O1 [doxorubicin]
- Absorption [3]: 5%

Molecule: Rituxan: large monoclonal antibody rituximab (144 kDa)
- Loading Level [4]: 24.1 ± 1.5 μg/mg hydrogel
- Loading Level ([4]; listed as rituximab): 24.1 μg/mg hydrogel
- Percent Release, t = 24 h [4]: 20.0 ± 3.6%
- Protein Released, t = 24 h [4]: 4.8 ± 1.1 μg/mg hydrogel

Molecule: Urokinase
- Loading Level [4]: 19.0 ± 1.1 μg/mg hydrogel
- Loading Level ([4]; listed as urokinase): 19.0 μg/mg hydrogel
- Percent Release, t = 24 h [4]: 14.2 ± 3.2%
- Protein Released, t = 24 h [4]: 2.7 ± 0.5 μg/mg hydrogel
